Values of other authors as cited in publication PMC6753016.
Where two headings read alike, the source gives them in different places.

Tests used:
Cathepsin L [1] = molecular target: Cathepsin L (UniProt P07711)
Target sequence in this assay (P07711 114-288, chain 1 of 2): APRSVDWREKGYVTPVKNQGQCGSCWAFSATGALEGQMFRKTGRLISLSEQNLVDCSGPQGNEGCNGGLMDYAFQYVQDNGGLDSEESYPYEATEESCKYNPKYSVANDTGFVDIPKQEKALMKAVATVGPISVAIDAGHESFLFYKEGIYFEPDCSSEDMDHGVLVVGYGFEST
Target sequence in this assay (P07711 292-333, chain 2 of 2): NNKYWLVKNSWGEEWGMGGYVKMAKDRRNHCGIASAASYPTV

Cathepsin H [2] = molecular target: Cathepsin H (UniProt P09668)
Target sequence in this assay (P09668 116-335): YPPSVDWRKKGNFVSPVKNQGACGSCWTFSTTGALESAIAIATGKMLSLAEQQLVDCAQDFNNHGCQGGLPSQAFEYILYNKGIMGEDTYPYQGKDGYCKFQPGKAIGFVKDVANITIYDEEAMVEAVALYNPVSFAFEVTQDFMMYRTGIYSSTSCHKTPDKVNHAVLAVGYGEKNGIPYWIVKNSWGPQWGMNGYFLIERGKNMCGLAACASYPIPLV

Cathepsin H [3] = molecular target: Cathepsin H (UniProt P09668); remark: listed apart in the source
Target sequence in this assay (P09668 whole entry, looked up): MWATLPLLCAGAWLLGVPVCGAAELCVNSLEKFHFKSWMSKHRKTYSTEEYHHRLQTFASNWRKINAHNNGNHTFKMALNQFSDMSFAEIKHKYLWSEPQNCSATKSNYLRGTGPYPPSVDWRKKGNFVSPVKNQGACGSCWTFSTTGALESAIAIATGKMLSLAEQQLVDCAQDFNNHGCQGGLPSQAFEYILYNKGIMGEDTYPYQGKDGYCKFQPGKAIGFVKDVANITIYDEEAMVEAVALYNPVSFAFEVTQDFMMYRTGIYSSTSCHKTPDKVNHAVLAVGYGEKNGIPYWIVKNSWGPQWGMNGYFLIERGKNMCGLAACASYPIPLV

Cathepsin L [4] = molecular target: Cathepsin L (UniProt P07711); remark: listed apart in the source
Target sequence in this assay (P07711 292-333): as the sequence (P07711 292-333, chain 2 of 2) above

β-Trypsin (Bos taurus) = β-Trypsin (Bos taurus) (UniProt P00760)
Chain of β-Trypsin (Bos taurus) (P00760 149-246): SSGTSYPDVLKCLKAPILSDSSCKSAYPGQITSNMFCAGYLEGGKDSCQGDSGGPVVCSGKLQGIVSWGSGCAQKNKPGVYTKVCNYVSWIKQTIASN

Cathepsin B [5] = molecular target: Cathepsin B (UniProt P07858)
Cathepsin L [6] = molecular target: Cathepsin L (UniProt P07711); remark: listed apart in the source
Target sequence in this assay (P07711 114-288, chain 1 of 2): as the sequence (P07711 114-288, chain 1 of 2) above
Target sequence in this assay (P07711 292-333, chain 2 of 2): as the sequence (P07711 292-333, chain 2 of 2) above

Cathepsin H [7] = molecular target: Cathepsin H (UniProt P09668); remark: listed apart in the source
Target sequence in this assay (P09668 116-335): as the sequence (P09668 116-335) above

Cathepsin H [8] = molecular target: Cathepsin H (UniProt P09668); remark: listed apart in the source
Target sequence in this assay (P09668 whole entry, looked up): as the sequence (P09668 whole entry, looked up) above

Cathepsin L [9] = molecular target: Cathepsin L (UniProt P07711); remark: listed apart in the source
Target sequence in this assay (P07711 292-333): as the sequence (P07711 292-333, chain 2 of 2) above

Cathepsin B [10] = molecular target: Cathepsin B (UniProt P07858); remark: listed apart in the source
[11] = molecular target: Factor XIIa (Homo sapiens) (UniProt P00748)
Chain of Factor XIIa (Homo sapiens) (P00748 whole entry, looked up): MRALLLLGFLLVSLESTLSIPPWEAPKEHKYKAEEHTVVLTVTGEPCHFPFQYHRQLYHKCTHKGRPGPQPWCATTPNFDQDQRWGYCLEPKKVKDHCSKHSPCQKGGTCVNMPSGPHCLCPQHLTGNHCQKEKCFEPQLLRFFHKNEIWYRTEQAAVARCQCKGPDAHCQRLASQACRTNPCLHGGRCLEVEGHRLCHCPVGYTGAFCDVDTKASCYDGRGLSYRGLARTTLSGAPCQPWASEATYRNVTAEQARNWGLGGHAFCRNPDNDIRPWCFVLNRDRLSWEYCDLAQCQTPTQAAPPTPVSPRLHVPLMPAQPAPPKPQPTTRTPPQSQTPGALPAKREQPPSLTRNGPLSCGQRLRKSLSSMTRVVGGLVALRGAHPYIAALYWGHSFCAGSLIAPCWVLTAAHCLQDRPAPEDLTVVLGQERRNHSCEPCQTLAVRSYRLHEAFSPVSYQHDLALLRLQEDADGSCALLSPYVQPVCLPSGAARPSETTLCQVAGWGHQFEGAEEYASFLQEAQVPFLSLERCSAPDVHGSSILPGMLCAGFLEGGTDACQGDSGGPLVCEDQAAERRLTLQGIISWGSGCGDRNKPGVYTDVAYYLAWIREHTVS

Trypsin (Bos taurus) [12] = molecular target: Trypsin (Bos taurus) (UniProt P00760)
Chain of Trypsin (Bos taurus) (P00760 149-246): as the sequence (P00760 149-246) above

[13] = molecular target: Kallikrein 14 (Homo sapiens) (UniProt Q9P0G3)
Chain of Kallikrein 14 (Homo sapiens) (Q9P0G3 41-267): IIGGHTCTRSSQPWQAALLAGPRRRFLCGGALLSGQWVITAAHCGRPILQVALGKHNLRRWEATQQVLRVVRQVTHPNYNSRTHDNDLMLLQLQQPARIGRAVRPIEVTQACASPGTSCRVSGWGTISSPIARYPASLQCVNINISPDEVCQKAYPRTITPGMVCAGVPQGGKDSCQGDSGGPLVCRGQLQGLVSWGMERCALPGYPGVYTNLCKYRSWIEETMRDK

Trypsin (Bos taurus) [14] = molecular target: Trypsin (Bos taurus) (UniProt P00760); remark: listed apart in the source
[15] = molecular target: Kallikrein 5 (Homo sapiens) (UniProt Q9Y337)
Chain of Kallikrein 5 (Homo sapiens) (Q9Y337 23-293): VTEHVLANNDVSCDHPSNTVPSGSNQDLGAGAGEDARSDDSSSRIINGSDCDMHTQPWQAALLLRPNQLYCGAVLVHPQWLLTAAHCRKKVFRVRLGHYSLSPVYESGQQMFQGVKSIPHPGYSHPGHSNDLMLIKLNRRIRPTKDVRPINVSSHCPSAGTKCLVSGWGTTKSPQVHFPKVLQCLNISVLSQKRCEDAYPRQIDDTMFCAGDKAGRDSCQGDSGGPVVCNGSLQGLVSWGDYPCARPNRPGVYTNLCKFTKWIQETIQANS

[16] = molecular target: Matriptase (Homo sapiens) (UniProt Q9Y5Y6)
Chain of Matriptase (Homo sapiens) (Q9Y5Y6 whole entry): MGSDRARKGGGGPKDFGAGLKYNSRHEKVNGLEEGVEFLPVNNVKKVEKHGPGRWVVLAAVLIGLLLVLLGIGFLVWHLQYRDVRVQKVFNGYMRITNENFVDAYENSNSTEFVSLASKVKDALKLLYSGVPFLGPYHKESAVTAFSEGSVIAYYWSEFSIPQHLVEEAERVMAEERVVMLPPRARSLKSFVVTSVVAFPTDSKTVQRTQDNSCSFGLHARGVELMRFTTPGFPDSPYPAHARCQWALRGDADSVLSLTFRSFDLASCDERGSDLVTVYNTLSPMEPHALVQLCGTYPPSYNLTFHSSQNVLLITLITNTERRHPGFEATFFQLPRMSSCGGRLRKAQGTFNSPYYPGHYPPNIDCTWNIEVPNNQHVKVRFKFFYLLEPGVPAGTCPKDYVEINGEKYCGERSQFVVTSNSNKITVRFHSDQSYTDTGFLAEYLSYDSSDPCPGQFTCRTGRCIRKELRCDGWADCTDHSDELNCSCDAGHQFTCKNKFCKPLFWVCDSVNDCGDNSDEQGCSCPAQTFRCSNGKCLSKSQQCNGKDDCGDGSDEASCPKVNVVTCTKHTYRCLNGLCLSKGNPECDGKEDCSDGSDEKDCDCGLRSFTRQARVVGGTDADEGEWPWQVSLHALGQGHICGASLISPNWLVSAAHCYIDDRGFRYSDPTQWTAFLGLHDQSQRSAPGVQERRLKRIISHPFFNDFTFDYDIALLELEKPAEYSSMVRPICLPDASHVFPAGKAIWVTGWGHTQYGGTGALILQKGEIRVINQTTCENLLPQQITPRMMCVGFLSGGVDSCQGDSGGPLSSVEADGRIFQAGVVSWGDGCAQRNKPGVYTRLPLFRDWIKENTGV

[17] = molecular target: Kallikrein 7 (Homo sapiens) (UniProt P49862)
Chain of Kallikrein 7 (Homo sapiens) (P49862 30-253): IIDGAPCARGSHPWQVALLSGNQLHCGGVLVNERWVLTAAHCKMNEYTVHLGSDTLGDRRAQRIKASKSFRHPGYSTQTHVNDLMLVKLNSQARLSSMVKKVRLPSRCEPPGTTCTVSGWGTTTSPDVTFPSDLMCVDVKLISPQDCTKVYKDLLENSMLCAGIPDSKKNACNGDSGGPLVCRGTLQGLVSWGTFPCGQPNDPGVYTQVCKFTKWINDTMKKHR

[18] = molecular target: Cathepsin G (Homo sapiens) (UniProt P08311)
Chain of Cathepsin G (Homo sapiens) (P08311 21-243): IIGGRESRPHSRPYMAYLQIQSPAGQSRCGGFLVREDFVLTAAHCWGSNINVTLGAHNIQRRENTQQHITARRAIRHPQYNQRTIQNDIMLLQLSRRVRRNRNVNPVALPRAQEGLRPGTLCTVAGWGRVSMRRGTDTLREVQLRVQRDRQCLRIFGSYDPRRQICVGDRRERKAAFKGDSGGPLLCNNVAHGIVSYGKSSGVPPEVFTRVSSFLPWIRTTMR

[19] = molecular target: Porcine elastase (Sus scrofa) (UniProt P00772)
Chain of Porcine elastase (Sus scrofa) (P00772 27-266): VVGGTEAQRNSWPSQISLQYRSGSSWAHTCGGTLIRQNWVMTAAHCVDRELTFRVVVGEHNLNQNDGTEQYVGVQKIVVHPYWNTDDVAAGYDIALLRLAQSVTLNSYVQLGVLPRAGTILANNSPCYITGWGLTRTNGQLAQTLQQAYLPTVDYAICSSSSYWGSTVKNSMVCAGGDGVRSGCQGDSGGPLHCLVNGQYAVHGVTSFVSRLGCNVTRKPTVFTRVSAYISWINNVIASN

Chain of Corn cystatin-I (P31726 25-135): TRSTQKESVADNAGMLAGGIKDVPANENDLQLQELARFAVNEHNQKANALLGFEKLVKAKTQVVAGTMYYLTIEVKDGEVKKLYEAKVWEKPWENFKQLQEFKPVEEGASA
Chain of Corn Hageman factor inhibitor (P01088 29-138): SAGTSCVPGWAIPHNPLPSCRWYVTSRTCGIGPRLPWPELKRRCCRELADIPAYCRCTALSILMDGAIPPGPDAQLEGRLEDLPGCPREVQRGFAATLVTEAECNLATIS
Chain of MCEI-III (P10296 2-31): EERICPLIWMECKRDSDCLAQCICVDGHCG
Chain of MTI-2 (P26780 31-93): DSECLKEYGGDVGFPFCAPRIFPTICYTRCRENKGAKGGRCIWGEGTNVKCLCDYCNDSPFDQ

Corn cystatin-I (from UniProt P31726)
Ki (Cathepsin L [1]): 17 nM
Ki (Cathepsin H [2]): 5.7 nM
Ki (Cathepsin H [3]): 5.7 nM
Ki (Cathepsin L [4]): 17 nM

MTI-2 (from UniProt P26780)
Ki (β-Trypsin (Bos taurus)): 0.01 nM

Oryzacystatin-I (from UniProt P09229)
Ki (Cathepsin B [5]): 79 nM
Ki (Cathepsin L [6]): 0.73 nM
Ki (Cathepsin H [7]): 1000 nM
Ki (Cathepsin H [8]): 1000 nM
Ki (Cathepsin L [9]): 0.73 nM
Ki (Cathepsin B [10]): 79 nM

Corn Hageman factor inhibitor (from UniProt P01088)
Ki [11]: 2 nM
Ki (Trypsin (Bos taurus) [12]): 23 nM

SFTI-I (from UniProt Q4GWU5)
Ki [13]: 25 nM
Ki (Trypsin (Bos taurus) [14]): 0.17 nM
Ki [15]: 140 nM
Ki [16]: 200 nM
Ki [17]: 740 nM
Ki [18]: 730 nM

MCEI-III (from UniProt P10296)
Ki [19]: 4 nM
